These are literature values, as cited in paper PMC4081073.

For the data set, the target named is EcoRI restriction endonuclease (Escherichia coli) (UniProt P00642).

As for “EcoRI restriction endonuclease (from UniProt P00642)”, the Kd – broadly, the concentration at which binding is half-saturated – was 100 nM.
